Patent publication US12673115B2, “Nucleic acid-peptide-nucleic acid conjugate molecules and methods of making the same” (ARIZONA BOARD OF REGENTS ON BEHALF OF ARIZONA STATE …, priority 2021, dated 2026)
Square brackets hold non-standard residues; d marks the D form. Primed or numbered codes have the meaning given here. Lys(N3) = [N-]=[N+]=NCCCC[C@H](N)C(=O)O; prA″ = not defined here

Assays:
[1] = target: T1, human matrix metalloproteinase 8 (MMP8) (Homo sapiens, UniProt P22894); test: Cleavage of peptide-linked DX tile dimer by MMP8, native PAGE; type: biochemical; settings: 4 ng protein, incubation for 48 h at 37° C. in PBS
T1 construct: purchased PerkinElmer
Description: As previously mentioned, one of our goals for these DPD triblock molecules is to use them as enzymatically-cleavable latches for a DNA nanostructure, e.g. to close the lid of a DNA origami box or “nano-bot”. To probe this effect, we used our DPD triblock to link together two model DNA nanostructures: double crossover (“DX” tiles), defined nanoscale objects 14 nm in length and 4 nm wide. DX tiles are composed of five unique strands—two edge strands, one central strand, and two crossover strands—and we designed two tiles that would have DNA1 and DNA2 as respective crossover strands (see FIG. 3A and Examples for tile design and strand composition). We surmised that upon annealing (95-4° C., over 2 h) the constituent strands for these tiles with the DNA1-MMPpep-DNA2 conjugate both tiles would form simultaneously, with the full hybridization of DNA1 and DNA2 into the corresponding tiles breaking the DPD hairpin. Addition of MMP8 to the DX tile dimer should cleave MMPpep, and restore the two separate DNA nanostructures.
We probed this system by native (non-denaturing) PAGE, FIG. 3A. Lanes 1 and 2 show the annealed DX tile with DNA2 incorporated, and the second DX tile with DNA1-MMPpep-(prA) respectively. […]
Polyacrylamide gel electrophoresis (PAGE). […] DX tiles were analyzed using 6% native polyacrylamide gels, with 1×TAE containing 12.5 mM Mg^2+ as a running buffer, at 200 V for 160 min.

integrin = settings: cyclic conformation approximating presentation on fibronectin; cited from earlier work

T1 sequence (P22894 101-467): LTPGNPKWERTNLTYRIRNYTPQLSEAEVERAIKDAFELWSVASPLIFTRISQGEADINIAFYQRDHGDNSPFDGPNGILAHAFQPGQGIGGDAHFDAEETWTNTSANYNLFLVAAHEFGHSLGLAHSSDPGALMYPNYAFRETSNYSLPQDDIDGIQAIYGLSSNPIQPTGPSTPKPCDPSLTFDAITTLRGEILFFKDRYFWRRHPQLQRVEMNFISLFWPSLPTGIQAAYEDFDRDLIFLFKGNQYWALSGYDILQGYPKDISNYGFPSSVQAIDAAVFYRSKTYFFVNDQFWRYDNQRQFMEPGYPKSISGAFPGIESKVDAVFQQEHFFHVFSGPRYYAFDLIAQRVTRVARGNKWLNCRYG

| Substance | cleavage of DX tile dimer to individual tiles after addition of MMP8 [1] | increase in binding efficiency on constraining in a cyclic conformation (integrin) |
| --- | --- | --- |
| (prA)GQGIPQGWGG(azK) ({prA″}-GQGIPQGWGG[Lys(N3)]-NH2; not fully specified; printed as (prA)GQGIPQGWGG(azK); reading uncertain) [MMPpep-scram, tested as linker of a tile dimer] | did not show any cleavage to individual tiles | – |
| RGDS | – | several orders of magnitude |
